Assay results reported in patent publication US10087225B2, “Formulation of MK2 inhibitor peptides” (MOERAE MATRIX, INC., priority 2015, dated 2018).

Experiments:
Experiment in all cases: Kinase Profiling Assay
MINK(h) = MINK(h) (Homo sapiens, UniProt Q8N4C8); assay type: biochemical
BrSK2(h) = target: T1, BrSK2(h) (Homo sapiens, UniProt Q8IWQ3); assay type: biochemical
T1 sequence (Q8IWQ3 1-736): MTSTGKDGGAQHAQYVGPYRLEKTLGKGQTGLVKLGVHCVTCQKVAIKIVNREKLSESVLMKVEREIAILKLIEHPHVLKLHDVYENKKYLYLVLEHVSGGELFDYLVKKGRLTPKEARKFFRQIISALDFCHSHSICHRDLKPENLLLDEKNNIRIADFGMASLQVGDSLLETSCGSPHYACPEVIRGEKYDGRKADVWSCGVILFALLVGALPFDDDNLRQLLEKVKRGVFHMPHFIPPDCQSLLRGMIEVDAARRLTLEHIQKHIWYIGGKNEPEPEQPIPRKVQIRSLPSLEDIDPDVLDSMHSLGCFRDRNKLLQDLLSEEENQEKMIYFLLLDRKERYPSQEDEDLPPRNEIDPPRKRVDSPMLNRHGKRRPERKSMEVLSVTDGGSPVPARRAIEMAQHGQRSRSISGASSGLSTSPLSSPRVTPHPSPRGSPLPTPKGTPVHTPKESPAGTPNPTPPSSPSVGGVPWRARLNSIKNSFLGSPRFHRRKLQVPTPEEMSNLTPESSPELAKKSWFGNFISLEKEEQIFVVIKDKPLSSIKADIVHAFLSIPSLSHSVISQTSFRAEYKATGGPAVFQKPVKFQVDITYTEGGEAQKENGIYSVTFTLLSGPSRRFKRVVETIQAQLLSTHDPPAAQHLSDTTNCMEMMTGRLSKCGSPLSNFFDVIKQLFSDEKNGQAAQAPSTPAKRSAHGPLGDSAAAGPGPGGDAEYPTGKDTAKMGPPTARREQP

cKit(D816H)(h) = cKit(D816H)(h) (Homo sapiens, UniProt P10721, D816H); assay type: biochemical
TAO3(h) = target: T2, TAO3(h) (Homo sapiens, UniProt Q9H2K8); assay type: biochemical
T2 sequence (Q9H2K8 1-898): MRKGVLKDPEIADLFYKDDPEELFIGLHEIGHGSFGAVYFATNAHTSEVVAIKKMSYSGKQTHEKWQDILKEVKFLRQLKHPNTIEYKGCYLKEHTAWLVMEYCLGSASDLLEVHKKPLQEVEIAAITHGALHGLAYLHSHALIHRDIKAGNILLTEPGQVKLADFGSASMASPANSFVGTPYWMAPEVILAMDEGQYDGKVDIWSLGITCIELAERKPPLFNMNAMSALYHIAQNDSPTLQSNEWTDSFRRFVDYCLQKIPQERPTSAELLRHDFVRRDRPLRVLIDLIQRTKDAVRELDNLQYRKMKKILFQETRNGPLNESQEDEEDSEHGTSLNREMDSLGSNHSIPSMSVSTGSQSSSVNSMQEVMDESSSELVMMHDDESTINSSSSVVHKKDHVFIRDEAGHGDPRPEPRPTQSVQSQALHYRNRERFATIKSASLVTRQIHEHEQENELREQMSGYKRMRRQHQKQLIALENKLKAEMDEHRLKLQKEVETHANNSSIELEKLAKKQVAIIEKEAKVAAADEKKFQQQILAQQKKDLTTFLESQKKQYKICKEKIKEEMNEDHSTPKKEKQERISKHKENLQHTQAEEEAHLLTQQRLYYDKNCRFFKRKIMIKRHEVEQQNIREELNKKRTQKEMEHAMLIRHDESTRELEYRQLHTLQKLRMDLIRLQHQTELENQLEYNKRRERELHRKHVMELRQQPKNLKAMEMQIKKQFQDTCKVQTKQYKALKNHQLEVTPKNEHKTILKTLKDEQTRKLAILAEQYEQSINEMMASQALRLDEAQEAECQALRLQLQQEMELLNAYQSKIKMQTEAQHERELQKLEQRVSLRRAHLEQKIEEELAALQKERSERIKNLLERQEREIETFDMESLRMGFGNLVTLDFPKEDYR

p70S6K(h) = assay type: biochemical, human; details: 100 μM
Src(T341M)(h) = Src(T341M)(h) (Homo sapiens, UniProt P12931, T341M); assay type: biochemical; details: 100 μM
Aurora-B(h) = Aurora-B(h) (Homo sapiens, UniProt Q96GD4); assay type: biochemical; details: 100 μM
Rsk2(h) = Rsk2(h) (Homo sapiens, UniProt P51812); assay type: biochemical; details: 100 μM
EGFR(T790M,L858R)(h) = EGFR(T790M,L858R)(h) (Homo sapiens, UniProt P00533, L858R/T790M); assay type: biochemical; details: 100 μM
SAPK3(h) = target: T3, SAPK3(h) (Homo sapiens, UniProt P53778); assay type: biochemical; details: 100 μM
T3 sequence (P53778 1-367): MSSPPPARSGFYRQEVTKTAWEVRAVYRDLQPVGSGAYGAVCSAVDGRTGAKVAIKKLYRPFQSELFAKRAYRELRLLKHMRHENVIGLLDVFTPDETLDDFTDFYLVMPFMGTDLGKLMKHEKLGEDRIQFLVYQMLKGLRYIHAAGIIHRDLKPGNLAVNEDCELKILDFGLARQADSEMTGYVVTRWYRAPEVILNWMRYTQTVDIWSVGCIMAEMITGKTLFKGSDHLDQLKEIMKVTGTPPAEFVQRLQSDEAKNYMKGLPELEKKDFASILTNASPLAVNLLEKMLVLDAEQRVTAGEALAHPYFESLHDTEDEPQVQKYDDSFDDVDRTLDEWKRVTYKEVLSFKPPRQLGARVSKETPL

CaMKIIβ(h) = CaMKIIβ(h) (Homo sapiens, UniProt Q13554); assay type: biochemical; details: 100 μM
PKCγ(h) = PKCγ(h) (Homo sapiens, UniProt P05129); assay type: biochemical; details: 100 μM
MSK1(h) = MSK1(h) (Homo sapiens, UniProt O75582); assay type: biochemical; details: 100 μM
Sequence of MSK1(h) (O75582 whole entry): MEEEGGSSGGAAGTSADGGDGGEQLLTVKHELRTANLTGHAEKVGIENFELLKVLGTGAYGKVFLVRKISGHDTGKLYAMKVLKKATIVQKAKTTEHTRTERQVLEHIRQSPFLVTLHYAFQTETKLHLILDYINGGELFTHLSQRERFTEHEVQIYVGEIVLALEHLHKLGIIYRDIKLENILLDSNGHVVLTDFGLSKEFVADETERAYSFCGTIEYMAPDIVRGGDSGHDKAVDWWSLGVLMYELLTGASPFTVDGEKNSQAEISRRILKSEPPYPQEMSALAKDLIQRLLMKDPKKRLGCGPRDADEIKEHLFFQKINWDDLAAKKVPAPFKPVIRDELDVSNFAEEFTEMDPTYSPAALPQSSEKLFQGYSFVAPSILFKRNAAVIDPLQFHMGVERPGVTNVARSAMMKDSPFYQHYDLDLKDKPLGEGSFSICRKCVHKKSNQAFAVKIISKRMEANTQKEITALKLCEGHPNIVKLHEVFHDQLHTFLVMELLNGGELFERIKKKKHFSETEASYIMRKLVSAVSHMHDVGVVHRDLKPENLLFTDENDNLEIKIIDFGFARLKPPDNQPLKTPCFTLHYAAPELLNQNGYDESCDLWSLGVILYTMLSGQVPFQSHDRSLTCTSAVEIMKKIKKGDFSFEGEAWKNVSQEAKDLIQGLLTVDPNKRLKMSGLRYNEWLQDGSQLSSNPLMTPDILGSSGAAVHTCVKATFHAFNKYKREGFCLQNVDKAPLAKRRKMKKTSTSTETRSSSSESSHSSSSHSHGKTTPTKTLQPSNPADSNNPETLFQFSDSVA

Sequence of Rsk2(h) (P51812 whole entry): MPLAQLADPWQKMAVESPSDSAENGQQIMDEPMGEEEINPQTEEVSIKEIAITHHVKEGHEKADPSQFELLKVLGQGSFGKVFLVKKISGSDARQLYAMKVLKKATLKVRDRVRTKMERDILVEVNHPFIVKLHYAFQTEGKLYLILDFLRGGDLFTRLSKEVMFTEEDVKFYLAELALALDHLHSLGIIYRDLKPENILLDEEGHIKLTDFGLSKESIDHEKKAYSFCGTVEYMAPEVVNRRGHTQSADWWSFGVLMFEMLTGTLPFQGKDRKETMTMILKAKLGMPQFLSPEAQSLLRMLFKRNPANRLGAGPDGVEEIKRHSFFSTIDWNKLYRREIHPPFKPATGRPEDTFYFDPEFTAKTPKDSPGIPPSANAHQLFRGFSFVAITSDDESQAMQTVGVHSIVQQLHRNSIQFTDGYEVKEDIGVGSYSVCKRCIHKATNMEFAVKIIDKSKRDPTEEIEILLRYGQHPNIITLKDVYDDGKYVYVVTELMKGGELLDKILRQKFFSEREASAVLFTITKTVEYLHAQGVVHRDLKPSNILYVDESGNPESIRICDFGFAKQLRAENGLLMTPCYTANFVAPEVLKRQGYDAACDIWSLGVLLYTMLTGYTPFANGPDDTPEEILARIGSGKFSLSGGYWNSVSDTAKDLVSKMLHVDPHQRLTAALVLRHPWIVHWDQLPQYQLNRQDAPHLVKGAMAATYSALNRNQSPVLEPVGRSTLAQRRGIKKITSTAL
Sequence of Aurora-B(h) (Q96GD4 whole entry): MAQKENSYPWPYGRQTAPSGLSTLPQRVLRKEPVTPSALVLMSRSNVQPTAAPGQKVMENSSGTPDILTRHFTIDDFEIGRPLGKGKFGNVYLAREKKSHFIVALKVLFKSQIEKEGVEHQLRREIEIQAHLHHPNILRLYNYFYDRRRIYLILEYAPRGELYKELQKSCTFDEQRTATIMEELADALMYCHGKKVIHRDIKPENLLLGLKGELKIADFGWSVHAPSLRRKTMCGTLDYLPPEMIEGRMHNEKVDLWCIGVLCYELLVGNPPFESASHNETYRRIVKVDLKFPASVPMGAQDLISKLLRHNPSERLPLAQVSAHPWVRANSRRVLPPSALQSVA
Sequence of MINK(h) (Q8N4C8 whole entry): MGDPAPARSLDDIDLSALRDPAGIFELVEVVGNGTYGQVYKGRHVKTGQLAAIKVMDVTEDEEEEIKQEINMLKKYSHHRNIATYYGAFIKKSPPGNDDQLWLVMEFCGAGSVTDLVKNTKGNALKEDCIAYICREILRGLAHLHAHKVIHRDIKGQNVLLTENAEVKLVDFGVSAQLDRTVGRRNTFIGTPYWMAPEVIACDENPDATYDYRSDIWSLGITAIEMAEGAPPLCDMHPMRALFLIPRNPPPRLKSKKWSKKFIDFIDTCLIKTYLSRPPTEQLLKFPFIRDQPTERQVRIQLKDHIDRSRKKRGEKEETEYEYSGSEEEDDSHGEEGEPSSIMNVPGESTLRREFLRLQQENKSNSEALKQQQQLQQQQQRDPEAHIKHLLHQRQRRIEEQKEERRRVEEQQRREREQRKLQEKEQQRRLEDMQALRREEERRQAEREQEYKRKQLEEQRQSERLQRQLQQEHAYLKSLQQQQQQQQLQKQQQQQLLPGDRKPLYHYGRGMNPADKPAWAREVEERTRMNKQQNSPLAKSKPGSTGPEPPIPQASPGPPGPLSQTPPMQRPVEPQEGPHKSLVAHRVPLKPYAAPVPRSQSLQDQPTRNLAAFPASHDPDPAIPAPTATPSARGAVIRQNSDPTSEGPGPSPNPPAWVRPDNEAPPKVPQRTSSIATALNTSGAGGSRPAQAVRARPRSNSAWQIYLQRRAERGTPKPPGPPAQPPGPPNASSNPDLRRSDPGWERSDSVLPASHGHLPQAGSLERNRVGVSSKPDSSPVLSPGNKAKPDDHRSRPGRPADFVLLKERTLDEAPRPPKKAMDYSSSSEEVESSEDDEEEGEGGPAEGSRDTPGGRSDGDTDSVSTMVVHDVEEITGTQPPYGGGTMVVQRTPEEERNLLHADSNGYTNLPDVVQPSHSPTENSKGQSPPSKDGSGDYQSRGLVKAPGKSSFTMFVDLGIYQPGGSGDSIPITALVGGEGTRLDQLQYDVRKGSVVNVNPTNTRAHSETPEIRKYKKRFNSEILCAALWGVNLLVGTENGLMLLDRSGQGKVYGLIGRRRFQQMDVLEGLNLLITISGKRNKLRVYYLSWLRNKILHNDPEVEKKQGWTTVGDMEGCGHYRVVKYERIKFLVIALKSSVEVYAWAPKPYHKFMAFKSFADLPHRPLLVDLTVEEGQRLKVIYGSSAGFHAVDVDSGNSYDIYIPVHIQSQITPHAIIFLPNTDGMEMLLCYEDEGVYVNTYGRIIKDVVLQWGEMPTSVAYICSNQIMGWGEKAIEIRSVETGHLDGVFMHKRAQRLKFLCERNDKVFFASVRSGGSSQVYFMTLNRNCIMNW
Sequence of CaMKIIβ(h) (Q13554 whole entry): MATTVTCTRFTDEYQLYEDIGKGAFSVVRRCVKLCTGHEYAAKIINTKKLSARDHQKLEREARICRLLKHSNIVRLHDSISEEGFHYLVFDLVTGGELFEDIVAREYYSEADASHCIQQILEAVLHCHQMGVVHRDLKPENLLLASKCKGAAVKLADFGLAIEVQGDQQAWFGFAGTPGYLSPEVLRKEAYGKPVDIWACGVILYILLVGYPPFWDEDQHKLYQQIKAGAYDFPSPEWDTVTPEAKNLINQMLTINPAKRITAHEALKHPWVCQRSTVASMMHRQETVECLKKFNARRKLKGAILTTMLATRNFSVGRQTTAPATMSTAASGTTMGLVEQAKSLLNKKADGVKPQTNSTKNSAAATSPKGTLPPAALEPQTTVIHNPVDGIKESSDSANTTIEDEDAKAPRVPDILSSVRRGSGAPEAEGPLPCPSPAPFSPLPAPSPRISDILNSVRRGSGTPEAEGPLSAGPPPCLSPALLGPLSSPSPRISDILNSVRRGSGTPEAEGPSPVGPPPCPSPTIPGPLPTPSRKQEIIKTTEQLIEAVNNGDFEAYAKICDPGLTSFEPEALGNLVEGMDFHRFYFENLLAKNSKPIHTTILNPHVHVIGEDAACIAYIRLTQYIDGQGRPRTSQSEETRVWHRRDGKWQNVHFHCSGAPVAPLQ

H-YARAAARQARAKALARQLGVAA-OH [MMI-0100]
activity at 100 µM (MINK(h)): 96% | activity at 100 µM (BrSK2(h)): 129% | activity at 100 µM (cKit(D816H)(h)): 79% | activity at 100 µM (TAO3(h)): 45%

HRRIKAWLKKIKALARQLGVAA (Mammalian) [MMI-0500]
% activity (p70S6K(h)): 3% | % activity (Src(T341M)(h)): 59% | % activity (Aurora-B(h)): 5% | % activity (MINK(h); 100 μM): 5% | % activity (Rsk2(h)): 14% | % activity (EGFR(T790M,L858R)(h)): 53% | % activity (BrSK2(h); 100 μM): 84% | % activity (SAPK3(h)): 24% | % activity (CaMKIIβ(h)): 3% | % activity (PKCγ(h)): 6% | % activity (MSK1(h)): 8% | % activity (cKit(D816H)(h); 100 μM): 194% | % activity (TAO3(h); 100 μM): 12%

YARAAARQARAKALNRQLGVA (Mammalian) [MMI-0200]
% activity (p70S6K(h)): 84% | % activity (Src(T341M)(h)): 56% | % activity (Aurora-B(h)): 166% | % activity (Rsk2(h)): 101% | % activity (EGFR(T790M,L858R)(h)): 108% | % activity (SAPK3(h)): 97% | % activity (CaMKIIβ(h)): 53% | % activity (PKCγ(h)): 101% | % activity (MSK1(h)): 50%
